Data set [1] addresses Influenza A virus hemagglutinin fused to mEGFP (HA-wt-mEGFP) (Influenza A virus).
Data set [2] deals with the molecule itself. Description: Number&Brightness analysis (fluorescence fluctuation spectroscopy, molecular brightness); living U2OS cells expressing the mEGFP fusion; brightness normalised to 1xmEGFP and corrected for non-fluorescent mEGFP with pf = 0.72 from 2xmEGFP.

The text below walks through data of paper PMC6045628 (Scientific Reports, 2018).

A word on the stoichiometry N: it is a count of units in the complex or per binding partner. The molecule “Influenza A virus hemagglutinin fused to mEGFP (HA-wt-mEGFP) (natural protein)” gave a stoichiometry N in data set [1] of 3.17.

B1: E. coli glutamine synthetase fused to mEGFP (GlnA-mEGFP) (enzyme, UniProt P0A9C5 1-469, looked up)
chain: MSAEHVLTMLNEHEVKFVDLRFTDTKGKEQHVTIPAHQVNAEFFEEGKMFDGSSIGGWKGINESDMVLMPDASTAVIDPFFADSTLIIRCDILEPGTLQGYDRDPRSIAKRAEDYLRSTGIADTVLFGPEPEFFLFDDIRFGSSISGSHVAIDDIEGAWNSSTQYEGGNKGHRPAVKGGYFPVPPVDSAQDIRSEMCLVMEQMGLVVEAHHHEVATAGQNEVATRFNTMTKKADEIQIYKYVVHNVAHRFGKTATFMPKPMFGDNGSGMHCHMSLSKNGVNLFAGDKYAGLSEQALYYIGGVIKHAKAINALANPTTNSYKRLVPGYEAPVMLAYSARNRSASIRIPVVSSPKARRIEVRFPDPAANPYLCFAALLMAGLDGIKNKIHPGEAMDKNLYDLPPEEAKEIPQVAGSLEEALNELDLDREFLKAGGVFTDEAIDAYIALRREEDDRVRMTPHPVEFELYYSV
notes: also called GlnA complex; copies: 12
B1: in data set [2], the “stoichiometry N” value turned out to be 11.9.
